T1: His-tagged human PTK7 protein (human, UniProt Q13308 31-704)
T1 construct: Bought protein; also called hPTK7-His; not shown: His tag
T1 sequence: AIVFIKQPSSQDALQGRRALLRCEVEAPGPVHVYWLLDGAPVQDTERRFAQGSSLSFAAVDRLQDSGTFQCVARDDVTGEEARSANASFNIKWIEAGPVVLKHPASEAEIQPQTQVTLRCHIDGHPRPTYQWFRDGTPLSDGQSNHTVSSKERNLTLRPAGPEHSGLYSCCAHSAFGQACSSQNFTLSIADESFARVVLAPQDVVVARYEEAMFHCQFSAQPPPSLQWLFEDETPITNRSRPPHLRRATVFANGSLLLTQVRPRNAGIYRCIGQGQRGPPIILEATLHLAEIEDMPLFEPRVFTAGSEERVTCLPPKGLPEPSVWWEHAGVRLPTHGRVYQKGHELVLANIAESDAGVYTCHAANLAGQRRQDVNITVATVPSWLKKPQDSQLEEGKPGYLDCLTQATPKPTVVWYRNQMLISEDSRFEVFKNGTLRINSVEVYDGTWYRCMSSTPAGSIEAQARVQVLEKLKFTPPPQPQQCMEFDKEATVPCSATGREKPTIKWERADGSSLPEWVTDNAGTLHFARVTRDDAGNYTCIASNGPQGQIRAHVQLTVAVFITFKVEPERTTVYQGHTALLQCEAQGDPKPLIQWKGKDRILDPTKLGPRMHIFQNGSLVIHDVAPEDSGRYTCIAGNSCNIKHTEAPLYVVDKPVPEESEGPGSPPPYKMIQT

T2: human PTK7 on human cancer cell lines (human, UniProt Q13308 31-1070)
T2 construct: Endogenous PTK7 of human tumour cell lines; also called PTK7 on A-431, NCI-H520, NCI-N87, SK-OV-3, BT-20, HCC1954, NCI-H226, NCI-H358, HCT116, PC-3, NCI-H292, NCI-H1975 cells
T2 sequence: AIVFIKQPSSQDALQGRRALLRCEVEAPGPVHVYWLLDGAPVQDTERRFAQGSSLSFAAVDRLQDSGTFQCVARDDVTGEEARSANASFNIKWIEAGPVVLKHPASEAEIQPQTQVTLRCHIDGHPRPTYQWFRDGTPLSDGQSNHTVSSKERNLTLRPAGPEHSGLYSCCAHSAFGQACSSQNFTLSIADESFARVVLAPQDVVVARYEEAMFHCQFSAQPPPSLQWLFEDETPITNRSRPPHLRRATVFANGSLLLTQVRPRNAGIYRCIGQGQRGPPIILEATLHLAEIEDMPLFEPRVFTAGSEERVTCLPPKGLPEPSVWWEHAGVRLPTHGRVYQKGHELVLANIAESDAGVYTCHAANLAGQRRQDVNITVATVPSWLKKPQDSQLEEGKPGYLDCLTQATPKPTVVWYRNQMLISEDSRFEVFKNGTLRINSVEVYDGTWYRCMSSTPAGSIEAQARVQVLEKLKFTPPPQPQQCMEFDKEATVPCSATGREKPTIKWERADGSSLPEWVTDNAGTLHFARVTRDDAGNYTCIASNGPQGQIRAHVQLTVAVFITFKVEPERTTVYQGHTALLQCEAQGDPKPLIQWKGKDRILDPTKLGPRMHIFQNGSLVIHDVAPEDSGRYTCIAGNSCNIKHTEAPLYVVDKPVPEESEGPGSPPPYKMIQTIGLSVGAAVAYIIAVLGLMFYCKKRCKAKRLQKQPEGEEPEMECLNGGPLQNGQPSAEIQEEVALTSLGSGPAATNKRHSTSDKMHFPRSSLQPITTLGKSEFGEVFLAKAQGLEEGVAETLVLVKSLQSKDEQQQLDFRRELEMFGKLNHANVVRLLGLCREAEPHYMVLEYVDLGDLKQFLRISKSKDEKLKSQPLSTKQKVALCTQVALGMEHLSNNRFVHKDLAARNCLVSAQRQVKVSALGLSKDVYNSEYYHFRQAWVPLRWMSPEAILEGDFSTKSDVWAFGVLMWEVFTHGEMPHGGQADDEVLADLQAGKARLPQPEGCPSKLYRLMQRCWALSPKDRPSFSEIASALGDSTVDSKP


Key:
[1] = molecular target: T1, His-tagged human PTK7 protein; test: BLI Octet binning on hPTK7-His; competitor 3C4
Experimental: (§1) Relative positions of target protein epitope between a pair of purified anti-PTK7 antibodies were analyzed by Biolayer Interferometry (BLI) using ForteBio Octet system at 30° C. A total of […] purified antibodies were used: 1A7, 1A11, 1F2, 2A5, 2D11, 2F5, 3C4 and 3E6.
(§2) 1×HBS-EP+ buffer (10 mM 4-(2-hydroxyethyl)-1-piperazineethanesulfonic acid (HEPES), 150 mM NaCl, 3 mM ethylenediaminetetraacetic acid (EDTA) and 0.05% P20, pH7.4) diluted from HBS-EP+ buffer (10×) was used as the running buffer throughout the experiment. His-tagged human PTK7 protein was captured at a flow rate of 10 μL/min, and 200 nM of antibody (Analyte 1) was injected at a flow rate of 30 μL/min to bind the ligand. Another antibody (Analyte 2) was injected under the same conditions to determine whether the binding of different antibodies interfered with each other. The binding time was 300 s for each antibody.
(§3) The binding value of each antibody was obtained using Data Analysis HT 12.0. To quantify the interference of one antibody binding to another, a binding ratio was calculated to compare each pair of antibodies. The binding ratio is defined as the binding value of the second antibody (Analyte 2), divided by the binding value of the first antibody (Analyte 1). […] In general, antibody pairs that interfere with each other have the same or overlapping epitopes.

[2] = molecular target: T1, His-tagged human PTK7 protein; test: BLI Octet binning on hPTK7-His; competitor 1F2
Experimental: as §1, §2, §3

[3] = molecular target: T1, His-tagged human PTK7 protein; test: BLI Octet binning on hPTK7-His; competitor 1A11
Experimental: as §1, §2, §3

[4] = molecular target: T1, His-tagged human PTK7 protein; test: BLI Octet binning on hPTK7-His; competitor 2A5
Experimental: as §1, §2, §3

[5] = molecular target: T2, human PTK7 on human cancer cell lines; test: flow cytometry, BT-20 cells, Ab 5 ug/mL
Experimental: (§4) The binding activity of anti-PTK7 antibodies to cancer cell lines was verified by flow cytometry. […] Purified anti-PTK7 antibody with a concentration of 5 μg/mL was added to each well and was incubated at 4° C. for 30 minutes. […] The cells were collected, and the mean fluorescence intensity (MFI) was determined. Human IgG1 was used as ISO control.

[6] = molecular target: T2, human PTK7 on human cancer cell lines; test: flow cytometry, NCI-H226 cells, Ab 5 ug/mL
Experimental: as §4

[7] = molecular target: T1, His-tagged human PTK7 protein; test: BLI Octet binning on hPTK7-His; competitor 1A7
Experimental: as §1, §2, §3

| Binder | binding ratio [1] | binding ratio [2] | binding ratio [3] | binding ratio [4] | MFI [5] | MFI [6] | binding ratio [7] |
| --- | --- | --- | --- | --- | --- | --- | --- |
| 1A11 (antibody, V domains shown, also called anti-PTK7 antibody 1A11) VH: QVQLVQSGPGLVKPSETLSLTCTVSGGSINSYYWNWIRQPPGKGLEWIGYIYYSGSTNYNPSLKSRVTISVDTSKNQFSLKLSSVTAADTAVYYCARDPHDYIRGHFDLWGRGTLFTVSS VL: not shown | 0.67 | 0.86 | -0.01 | 0.75 | 136000 | 152000 | 0.71 |
| 3C4 (antibody, V domains shown, also called anti-PTK7 antibody 3C4) VH: QVQLEQSRAEVKKPGESLRISCKGSGYSFTSYWISWVRQMPGKGLEWMGRIDPSDSYTNYNPSFQGHVTISADKSISTAYLQWSSLKASDTAMYYCARRDGSYFDFDYWGQGTLVTVSS VL: not shown | 0.16 | 0.9 | 0.84 | 0.93 | 148000 | 167000 | 0.87 |
| 1A7 (antibody, human IgG1, V domains shown, also called anti-PTK7 antibody 1A7) VH: QVQLVESGGGVVQPGRSLRLSCAASGFTFSNYGMHWVRQAPGKGLEWVAVIYYDGSNKFYADSVKGRFTISRDNSKNTLYLQMSSLRAEDTAVYYCARDVAPPGSRAEYFHHWGQGTLVTVSS VL: not shown | 0.66 | 0.84 | 0.74 | 0.1 | 86200 | 80200 | 0.08 |
| 2F5 (antibody, V domains shown, also called anti-PTK7 antibody 2F5) VH: QVQLVESGGGVVQPGRSLRLSCVASGFTFSNYGMHWVRQAPGKGLEWVAIIYYDGSNKYYADSVKGRFTISRDNSKNTLYLQMNSLRAEDTAVYYCARDVAAAGSRAEYLHHWGQGTLVTVSS VL: not shown | 0.71 | 0.85 | 0.71 | 0.12 | 83800 | 80900 | 0.12 |

Further lines, results first:

| binding ratio [1] | binding ratio [2] | binding ratio [3] | binding ratio [4] | MFI [5] | MFI [6] | binding ratio [7] | Binder |
| --- | --- | --- | --- | --- | --- | --- | --- |
| 0.11 | 0.74 | 0.71 | 0.81 | 152000 | 193000 | 0.71 | 3E6 (antibody, V domains shown, also called anti-PTK7 antibody 3E6) VH: QVQLVESGAEVKKPGESLRISCRGSGYSFTSYWISWVRQMPGKGLEWMGRIDPSDSYTKYSPSFQGHVTISADKSISTAYLQWSSLKASDTAMYYCARRDGDYFDFDYWGQGTLVTVSS VL: not shown |
| 0.48 | 0.03 | 0.64 | 0.71 | 50900 | 94900 | 0.64 | 1F2 (antibody, V domains shown, also called anti-PTK7 antibody 1F2) VH: QVQLVQSGGGLVQPGGSLRLSCAASGFTFSRYEMNWVRQAPGKGLEWVSYINSIGSAINYADSVKGRFTISRDNAKNSLYLQMRSLRAEDTAVYYCVREDNWNPGYWGQGTLVTVSS VL: not shown |
| 0.81 | 0.93 | 0.83 | 0.15 | 172000 | 180000 | 0.17 | 2D11 (antibody, V domains shown, also called anti-PTK7 antibody 2D11) VH: QVQLVESGGGVVQPGRSLRLSCAASGFTFSSYGMHWVRQAPGKGLEWVAVIFYDGSNKYYADSVKGRFTISRDNSKNTLYLQMNSLRAEDTSVYYCARDVAAPGSRAEYFQNWGQGTLVTVSS VL: not shown |
| 0.62 | 0.78 | 0.62 | 0.05 | 137000 | 141000 | -0.02 | 2A5 (antibody, V domains shown, also called anti-PTK7 antibody 2A5) VH: QVQLVQSGGGVVQPGRSLRLSCAASGFTFSNYGMHWVRQAPGKGLEWVAVIWYDGRNKYYADSVKGRFTISRDNSKNTLYLQMNSLRAEDTAVYYCARDVAPAGSRAEYFQNWGQGTLVTVSS VL: not shown |

From US20260250421A1 (BIOCYTOGEN PHARMACEUTICALS BEIJING, published 2026)
